Data on one molecule can be found in article PMC7377350.

This data set deals with T1, CREB B-ZIP domain (UniProt P16220 269-327).
T1 sequence: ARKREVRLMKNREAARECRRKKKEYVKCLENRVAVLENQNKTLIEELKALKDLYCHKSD
Briefly: EMSA. On the technique in general: Mobility shift assays separate free from complexed probe on a gel.

B1: CREB (CRE) 28-mer (dsDNA)
DNA 1: GTCAGTCAGATGACGTCATATCGGTCAG
DNA 2: CTGACCGATATGACGTCATCTGACTGAC
On to B1, for which the binding result is “binds”.
